Data reported in patent publication US20160138094.

What was measured:
[1] = tested on: TALE_037 (TALE_97 with RVD N* opposite C6) repeat 5 RVD HD to N* (position 13 deleted) (Xanthomonas axonopodis pv. citri (engineered)); assay: inhibition
[2] = tested on: TALE_038 (TALE_97 with RVD NG opposite C6) repeat 5 RVD HD to NG (Xanthomonas axonopodis pv. citri (engineered)); assay: inhibition
[3] = 5mC at target position 6, inhibition of Klenow exo- primer extension, MgCl2, room temperature
[4] = inhibition of Klenow exo- primer extension, MgCl2, room temperature

## TGGATTCCCACTCTTCAGCCCCAGCGTTACAGCATCTTCAGTGGCTTCTTCCACCGTGAGCTCTTCCGTTTCCACATCC / GGATGTGGAAACGGAAGA [t97_C6mC / p97_rev]
[1]; [3]
  IC50: 51 nM
[2]; [3]
  IC50: 163 nM

## TGGATTCCCACTCTTCAGCCCCAGCGTTACAGCATCTTCAGTGGCTTCTTCCACCGTGAGCTCTTCCGTTTCCACATCC / GGATGTGGAAACGGAAGA [t97 template / p97_rev primer]
[1]; [4]
  IC50: 60 nM
[2]; [4]
  IC50: 357 nM

## TGGATTCCCACTCTTCAGCCCCAGCGTTACAGCATCTTCAGTGGCTTCTTCCACCGTGAGCTCTTCCGTTTCCACATCC / GGATGTGGAAACGGAAGA [t97_C6hmC / p97_rev]
[1]; 5hmC at target position 6, reduction of primer extension to 50% at about this TALE concentration
  IC50: 1500 nM
[2]; 5hmC at target position 6, reduction of primer extension to 50%, estimated
  IC50: 2000 nM
